For assay [1], the target named is SARS-CoV-2 full length spike protein, V483A mutant (SARS-CoV-2, UniProt P0DTC2 14-1273).
Assay [2] has as its target SARS-CoV-2 full length spike protein, V483A mutant, expressed on CHO cells (SARS-CoV-2, UniProt P0DTC2 14-1273).
The target in assay [3] is SARS-CoV-2 spike protein with D614G mutation (SARS-CoV-2, UniProt P0DTC2 14-1208).

These results are taken from patent US20210292393A1 (published 2021).

B1: antibody 294 (antibody, V domains shown)
VH: EVQLVESGGGLVQPGGSLRLSCAASGFTVSSNYMNWVRQAPGKGLEWVSVIYSGGSTYYADSVKGRFTISRDNSKNTLYLQMNSLRAEDTAVYYCARDLGPSGMDVWGQGTTVTVSS
VL: DIQMTQSPSSVSASVGDRVTITCRASQGISSWLAWYQQKPGKAPKLLIYAASSLQSGVPSRFSGSGSGTDFTLTISSLQPEDFATYYCQQANSFPLFGGGTKVEIK
On to B1, for which the “median fluorescence intensity, fold over isotype control” value (shortened to “median fluorescence intensity, fold”) in assay [1] was determined as 18.4 fold over isotype.

B2: antibody 264 (antibody, V domains shown)
VH: QVHLVESGGGVVQPGRSLRLSCAASGFTLTSYAMHWVRQAPGKGLEWVALISYDGSVKKYAESVKGRITVSGDNSRNTLHLQINTLRADDTAVYYCVRGGVSGPNSFDLWGQGTMVTVSS
VL: DVVMTQSPLSLPVTLGQPASISCRSSQSLEYSDGNTYVNWFQQRPGQSPRRLIYQVSNRASGVPDRFSGSGSGTDFTLQISRVEAEDVGIYYCMQGTHWPVTFGQGTKVEIK
On to B2, for which the “median fluorescence intensity, fold” value in assay [1] is 11.1 fold over isotype.

B3: antibody 266 (antibody, V domains shown)
VH: QVQLVESGGGVVQPGRSLRLSCAASGFNLSNYAMHWVRQPSGKGLEWVSLISYDGSIKYYTDSVKGRFTVSGDNSKNTLFLQMNSLRPDDSALYYCVRGGVSGPNSFDMWGQGTTVTVSS
VL: DVVMTQSPLSLPVTLGQPASISCRSSQSLVYSDGNTYVNWFQQRPGQSPRRLIYQVSIRASGVPDRFSGSGSGTDFALKISRVEAEDVGVYYCMQGTHWPVTFGQGTKVEIK
For B3, the “median fluorescence intensity, fold” value in assay [1] was determined as 10.8 fold over isotype.

B4: antibody 273 (antibody, V domains shown)
VH: QVQLVQSGAEVKKPGASVKVSCKVSGYTLTELSMHWVRQAPGKGLEWMGGFDPEDGETIYAQKFQGRVTMTEDTSTDTAYMELSSLRSEDTAVYYCATAPGYYDSSAPQPINWFDPWGQGTLVTVSS
VL: QSALTQPASVSGSPGQSITISCTGTSSDVGSYNLVSWYQQHPGKAPKLMIYEVSKRPSGVSNRFSGSKSGNTASLTISGLQAEDEADYYCCSYAGSSTLVFGGGTKLTVL
Take B4: in assay [1], the “median fluorescence intensity, fold” value came out at 16 fold over isotype.

B5: antibody 470 (antibody, V domains shown)
VH: not shown
VL: QSALTQPASVSGSPGQSITISCTGTSSDVGSYNLVSWYQQHPGKAPKLMIYEVSKRPSGVSNRFSGSKSGNTASLTISGLQAEDEADYYCCSYAGSSTLVFGGGTKLTVL
Turning to B5, in assay [2], the “median fluorescence intensity, fold” value amounted to 7.63 fold over isotype.

B6: anti-SARS-CoV-2 antibody 1193 (antibody, V domains shown)
VH: EVQLVESGGGLVQPGGSLRLSCAASGFTFSSYYMNWVRQAPGKGLEWVSYISSGSSIIYYADSVKGRFTISRDNAKNSLYLQMNSLRDEDTAVYYCARDSPLRYFDWQLGGGFDYWGQGTLVTVSS
VL: QSALTQPASVSGSPGQSITISCTGTSSDVGGYNYVSWYQQHPGKAPKLMIYDVSNRPSGVSNRFSGSKSGNTASLTISGLQAEDEADYYCSSYTSSSLWVFGGGTKLTVL
By Kd is commonly meant a measure of binding affinity in units of concentration. Read a low Kd as higher affinity. In the case of B6, binding in assay [3] was characterised by a dissociation constant (Kd) of 0.041 nM.

B7: antibody 303 (antibody, V domains shown)
VH: QVQLVESGGGVVQPGRSLRLSCAASGFNLSSYAMHWVRQASGKGLEWVSLISYDGSIKYYADSVKGRFTVSGDNSKNMLFLQMNSLRADDSALYYCVRGGVSGPNAFDIWGQGTTVTVSS
VL: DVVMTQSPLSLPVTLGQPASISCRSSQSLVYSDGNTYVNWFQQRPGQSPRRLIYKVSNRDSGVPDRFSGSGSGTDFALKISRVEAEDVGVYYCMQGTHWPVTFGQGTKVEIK
In the case of B7, in assay [1], the “median fluorescence intensity, fold” value was found to be 10 fold over isotype.

B8: antibody 471 (antibody, V domains shown)
VH: QVQLVESGGGVVQPGRSLRLSCAASGFTFSSYAMHWVRQAPGKGLEWVAVISYDGSNKYYADSVKGRFTISRDNSKNTLYLQMNSLRAEDTAVYYCAKQYSPYCSGGSCYSGASDYWGQGTLVTVSS
VL: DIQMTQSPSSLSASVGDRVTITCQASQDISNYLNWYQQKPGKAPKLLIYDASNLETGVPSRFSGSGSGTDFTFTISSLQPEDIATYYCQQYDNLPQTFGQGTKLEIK
As for B8, in assay [2], the “median fluorescence intensity, fold” value was 2.75 fold over isotype.

B9: antibody 288 (antibody, V domains shown)
VH: EVQLVESGGGLVQPGGSLRLSCAASGFTFSSYDMHWVRQATGKGLEWVSAIGTAGDTYYPGSVKGRFTISRENAKNSLYLQMNSLRAGDTAVYYCARGANRDYDILTGYYSYYYYGMDVWGQGTTVTVSS
VL: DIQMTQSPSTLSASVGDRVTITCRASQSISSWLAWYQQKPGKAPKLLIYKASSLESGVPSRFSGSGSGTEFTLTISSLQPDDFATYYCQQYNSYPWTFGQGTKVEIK
Turning to B9, the “median fluorescence intensity, fold” value in assay [1] worked out at 18.7 fold over isotype.

B10: anti-SARS-CoV-2 antibody 1118 (antibody, V domains shown)
VH: EVQLVESGGGLVQPGGSLRLSCAASGFRFSNYEMNWVRQAPGKGLEWVSYISSTGGSIFYADSVKGRFTISRGDAKNSVYLQMNSLRAEDTAVYYCARAMYYYGSGTLDYWGQGTLVTVSS
VL: DIQMTQSPSSLSASVGDRVTITCRASQSISRFLNWYQQKPGTAPKLLIYDVSSLQSGVPTRFSGSGSGTDFTLTISSLQPEDFATYYCQQSYTTPPAFGPGTRVDIK
B10 showed a Kd in assay [3] of 0.044 nM.

B11: antibody 295 (antibody, V domains shown)
VH: QVQLQESGPGLVKPSQTLSLTCTVSGGSISSSDYYWSWIRQPPGKGLEWIGYIYYSGSTYYNPSLKSRVTISVDTSKNQFSLKLSSVTAADTAVYYCARVVGYCSSTSCYVDYWGQGTLVTVSS
VL: EIVLTQSPATLSLSPGERVTLSCRASQSVSSYLAWYQQKPGQAPRLLIYDASNRATGIPARFSGSGSGTDFTLTISSLEPEDFAVYYCQQRSNWPPGLTFGGGTKVEIK
With B11, the “median fluorescence intensity, fold” value in assay [1] was found to be 9.93 fold over isotype.

B12: antibody 300 (antibody, V domains shown)
VH: QVQLVESGGGVVQPGRSLTLSCAASGFTFSSYAMHWVRQAPGKGLEWVALISYDGNNKYYADSVKGRFTFSRDNSKNTLYLQMNSLRAEDTAVYYCARTNSGSYRTAFDYWGQGTLVTVSS
VL: DIQMTQSPSTLSASVGDRVTITCRASQSISIWLAWYQQKPGKAPKLLIYKASSLESGVPSRFSGSGSGTEFTLTISSLQPDDFATYYCQQYNSLWTFGQGTKVEIK
As for B12, in assay [1], the “median fluorescence intensity, fold” value was found to be 10.2 fold over isotype.

B13: antibody 260 (antibody, V domains shown)
VH: EVQLVESGGGLVQPGRSLRLSCAASGFTFDYYAMHWVRQAPGKGLEWVSGISWNSGTIGYADSVKGRFTISRDNAKNSLYLQMNSLRAEDTALYYCAKDSRPSGRYYYGMDVWGQGTTVTVSS
VL: not shown
With B13, the “median fluorescence intensity, fold” value in assay [1] came to 11 fold over isotype.

B14: antibody 276 (antibody, V domains shown)
VH: QVQLQESGPGLVKPSQTLSLTCTVSGDSISSGGYYWSWIRQHPGKGLEWIGYIYYSGSAYYNPSLKSRVTISLDTSKNQFSLKLSSVTAADTAVYYCARDSVAGFSIFDYWGQGTLVTVSS
VL: SSELTQDPAVSVALGQTVRITCQGDSLRSYYASWYQQKPGQAPVRVIYGKNNRPSGIPDRFSGSSSGNTASLTITGAQAEDEADYYCNSWDSSGNHVVFGGGTKLTVL
Consider B14, for which the “median fluorescence intensity, fold” value in assay [1] was found to be 11.1 fold over isotype.

B15: anti-SARS-CoV-2 antibody 1081 (antibody, V domains shown)
VH: EVQLVQSGAEVKKPGESLKISCKRSGYSFTTYWIGWVRQMPGKGLEWMGSIYPGDSDTRYSPSFQGQVTISADKSISTAYLQWSSLKASDTAMYYCASQEVPGYYYYMDVWGKGTTVTVSS
VL: DIQMTQSPSSLSASVGDRVTITCRASQSISSYLHWYQQKPGKAPKLLIYAASSLQSGVPSRFSGSGSGTDFTLTISSLQPEDFATYYCQQTYSTHTWTFGQGTKVEIK
Molecule B15 had a Kd in assay [3] of 0.041 nM.

B16: anti-SARS-CoV-2 antibody 1098 (antibody, V domains shown)
VH: DVQLVQSGAEVKKPGESLKISCKGSGYRFTSYWIAWVRQMPGKGLEWMGIIYPGDSDTRYSPSFQGQVTISADKSISTAYLQWSSLKASDTAMYYCASQAAAGYFYYMDVWGKGTTVTVSS
VL: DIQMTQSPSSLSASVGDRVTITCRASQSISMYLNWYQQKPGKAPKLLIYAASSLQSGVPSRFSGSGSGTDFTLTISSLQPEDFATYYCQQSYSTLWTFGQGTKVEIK
Turning to B16, binding in assay [3] was put at a Kd of 0.022 nM.

B17: antibody 301 (antibody, V domains shown)
VH: QVQLVQSGAEVKKPGASVKVSCKVSGYTLTELSMHWVRQAPGKGLEWMGGFDPEDGETIYAQKFQGRVTMTEDTSTDTAYMELSSLRSEDTAVYYCATAFCGGDCYPPDALDIWGQGTMVTVSS
VL: DIQMTQSPSSVSASVGDRVTITCRASQGISSWLAWYQQKPGKAPKLLIYAASSLQSGVPSRFSGSGSGTDFTLTISSLQPEDFATYYCQQANSFPLTFGGGTKVEIK
B17: the “median fluorescence intensity, fold” value in assay [1] amounted to 21.3 fold over isotype.

B18: antibody 263 (antibody, V domains shown)
VH: EVQLVQSGAEVKKPGATVKISCKVSGYTFTDYYMHWVQQAPGKGLEWMGLVDPEDGETIYAEKFQGRVTITADTSTDTAYMELSSLRSDDTAVYYCTTDLAFTIFGGRRGFDPWGQGTLVTVSS
VL: DIQLTQSPSFLSASVGDRVTITCRASQGISSYLAWYQQKPGKAPKLLIYAASTLQSGVPSRFSGSGSGTEFTLTISSLQPEDFATYYCQQLNSYDFGQGTRLEIK
As for B18, the “median fluorescence intensity, fold” value in assay [1] is 17.3 fold over isotype.

B19: anti-SARS-CoV-2 antibody 1091 (antibody, V domains shown)
VH: EVQLVESGGGLVKPGGSLRLSCAASGFPFITYSMNWVRQAPGKGLEWVSSISRNSDYIYYADSVRGRVTISRDNAENSLYLQMHSLRAEDTAVYYCARDVVRSGNYYIPRHGMDVWGRGTTVTVSS
VL: QSVLTQPPSASGTPGQRVTISCSGTSSNIGSNTVNWYQQLPETAPKLLIYGTDQRPSGVPDRFSGSKSGTSASLAISRLQSEDEADYYCATRDDSLSGPVFGGGTQLTVL
In assay [3], B19 came in with a Kd of 0.019 nM.

B20: antibody 281 (antibody, V domains shown)
VH: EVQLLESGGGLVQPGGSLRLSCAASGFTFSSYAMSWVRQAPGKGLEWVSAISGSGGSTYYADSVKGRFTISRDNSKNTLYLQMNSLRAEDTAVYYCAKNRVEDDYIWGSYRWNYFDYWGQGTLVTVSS
VL: QSALTQPASVSGSPGQSITISCTGTSSDVGSYNLVSWYQQHPGKAPKLMIYEVSKRPSGVSNRFSGSKSGNTASLTISGLQAEDEADYYCCSYAGSSTHVVFGGGTKLTVL
For B20, the “median fluorescence intensity, fold” value in assay [1] was 20.3 fold over isotype.

B21: antibody 284 (antibody, V domains shown)
VH: QVTLRESGPALVKPTQTLTLTCTFSGFSLSTSGMCVSWIRQPPGKALEWLALIDWDDDKYYSTSLKTRLTISKDTSKNQVVLTMTNMDPVDTATYYCARTSGYSSSWPSFDYWGQGTLVTVSS
VL: not shown
With B21, the “median fluorescence intensity, fold” value in assay [1] turned out to be 22 fold over isotype.

B22: antibody 265 (antibody, V domains shown)
VH: EVQLVQSGAEVKKPGATVKVSCKFSGDTFSHYYIHWVQQAPGKGLEWMGLVDPQDGESEYAQKFQGKVTITADTSIDTSYLEVTSLRFDDTAFYFCATRGMSGAFDRWGQGTLVTVSS
VL: DIVMTQSPDSLAVSLGERATINCKSSQSILSTSNNKNYLAWYQQKPGQPPKLLIYWASTRESGVPDRFSGGGSGTDFTLTISSLQAEDVAVYYCQQYYRTAYTTPIYTFGQGTKLEIK
For the molecule B22, the “median fluorescence intensity, fold” value in assay [1] is 14.5 fold over isotype.

B23: anti-SARS-CoV-2 antibody 1203 (antibody, V domains shown)
VH: QLRLQESGPGLVKPSETLSLTCTVSGGSISSSNFYWGWIRQPPGKGLEWIGSIYYSGSTHYNPSLKSRVTVSVDTSKNQFSLKLSSVTAADTAVYYCARLTYYYDSSGFIRAEPFDYWGQGILVTVSS
VL: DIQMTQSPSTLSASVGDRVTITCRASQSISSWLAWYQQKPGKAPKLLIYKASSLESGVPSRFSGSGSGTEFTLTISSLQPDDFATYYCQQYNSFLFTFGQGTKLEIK
Regarding B23, the affinity in assay [3], expressed as Kd, was 0.079 nM.
